Results as given in PMC4456239.
Like-named read-outs stand apart in the source and are kept apart here. *: point of attachment. X2 = 4‑((4-methylpiperazin-1-yl)methyl)benzoic acid, CN1CCN(Cc2ccc(C(=O)*)cc2)CC1

Columns and labels:
Experiment in all cases: other fluorescence titration
[1] = target: recombinant His-tagged human cyclin A2 (sequence 174-432) (human) (UniProt P20248)
[2] = target: recombinant His-tagged human cyclin A2 (sequence 174-432) (human) (UniProt P20248); remark: listed apart in the source
[3] = target: recombinant His-tagged human cyclin A2 (sequence 174-432) (human) (UniProt P20248); remark: listed apart in the source
[4] = target: recombinant His-tagged human cyclin A2 (sequence 174-432) (human) (UniProt P20248); remark: listed apart in the source
[5] = target: recombinant His-tagged human cyclin A2 (sequence 174-432) (human) (UniProt P20248); remark: listed apart in the source
[6] = target: recombinant His-tagged human cyclin A2 (sequence 174-432) (human) (UniProt P20248); remark: listed apart in the source
[7] = target: recombinant His-tagged human cyclin A2 (sequence 174-432) (human) (UniProt P20248); remark: listed apart in the source

UniProt P20248, sequence (P20248 174-432): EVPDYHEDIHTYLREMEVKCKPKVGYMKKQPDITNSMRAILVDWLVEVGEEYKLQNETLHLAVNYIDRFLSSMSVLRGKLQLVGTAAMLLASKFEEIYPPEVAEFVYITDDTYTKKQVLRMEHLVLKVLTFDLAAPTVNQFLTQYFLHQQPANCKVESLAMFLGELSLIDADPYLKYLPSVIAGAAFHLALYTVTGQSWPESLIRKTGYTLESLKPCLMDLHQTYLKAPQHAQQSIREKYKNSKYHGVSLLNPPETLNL

X2-RLIF-NH2 [SCCP5921: 4-((4-methylpiperazin-1-yl)methyl)benzoic acid ligated to the p21 C-terminus, RLIF] gave a Kd [1] of 5.44 µM, a Kd [2] of 6.77 µM and a Kd [3] of 4.77 µM. The Kd [4] was 3.21 µM, the Kd [5] was 5.28 µM and the Kd [6] was 3.55 µM. For the same binder, the Kd [7] was 6.59 µM.
